These results are taken from US20240026035A1 (published 2024).

The target of this assay is T1, bovine thyroglobulin (bovine, UniProt P01267 20-2769, carries alpha-gal (galactose-alpha-1,3-galactose) glycans).
T1 construct: Antigen coated on ELISA plates, blotted, or on the ImmunoCAP o215 solid phase; It is recognised through its alpha-gal glycans; also called BTG; Thyroglobulin, bovine
The experiment in a line: direct ELISA, bovine thyroglobulin coated at 25 ug/ml, purified IgE dilution series. On the technique in general: An ELISA detects its analyte on a solid surface through an enzyme-linked reagent.

T1 sequence (P01267 20-2769 limits assumed): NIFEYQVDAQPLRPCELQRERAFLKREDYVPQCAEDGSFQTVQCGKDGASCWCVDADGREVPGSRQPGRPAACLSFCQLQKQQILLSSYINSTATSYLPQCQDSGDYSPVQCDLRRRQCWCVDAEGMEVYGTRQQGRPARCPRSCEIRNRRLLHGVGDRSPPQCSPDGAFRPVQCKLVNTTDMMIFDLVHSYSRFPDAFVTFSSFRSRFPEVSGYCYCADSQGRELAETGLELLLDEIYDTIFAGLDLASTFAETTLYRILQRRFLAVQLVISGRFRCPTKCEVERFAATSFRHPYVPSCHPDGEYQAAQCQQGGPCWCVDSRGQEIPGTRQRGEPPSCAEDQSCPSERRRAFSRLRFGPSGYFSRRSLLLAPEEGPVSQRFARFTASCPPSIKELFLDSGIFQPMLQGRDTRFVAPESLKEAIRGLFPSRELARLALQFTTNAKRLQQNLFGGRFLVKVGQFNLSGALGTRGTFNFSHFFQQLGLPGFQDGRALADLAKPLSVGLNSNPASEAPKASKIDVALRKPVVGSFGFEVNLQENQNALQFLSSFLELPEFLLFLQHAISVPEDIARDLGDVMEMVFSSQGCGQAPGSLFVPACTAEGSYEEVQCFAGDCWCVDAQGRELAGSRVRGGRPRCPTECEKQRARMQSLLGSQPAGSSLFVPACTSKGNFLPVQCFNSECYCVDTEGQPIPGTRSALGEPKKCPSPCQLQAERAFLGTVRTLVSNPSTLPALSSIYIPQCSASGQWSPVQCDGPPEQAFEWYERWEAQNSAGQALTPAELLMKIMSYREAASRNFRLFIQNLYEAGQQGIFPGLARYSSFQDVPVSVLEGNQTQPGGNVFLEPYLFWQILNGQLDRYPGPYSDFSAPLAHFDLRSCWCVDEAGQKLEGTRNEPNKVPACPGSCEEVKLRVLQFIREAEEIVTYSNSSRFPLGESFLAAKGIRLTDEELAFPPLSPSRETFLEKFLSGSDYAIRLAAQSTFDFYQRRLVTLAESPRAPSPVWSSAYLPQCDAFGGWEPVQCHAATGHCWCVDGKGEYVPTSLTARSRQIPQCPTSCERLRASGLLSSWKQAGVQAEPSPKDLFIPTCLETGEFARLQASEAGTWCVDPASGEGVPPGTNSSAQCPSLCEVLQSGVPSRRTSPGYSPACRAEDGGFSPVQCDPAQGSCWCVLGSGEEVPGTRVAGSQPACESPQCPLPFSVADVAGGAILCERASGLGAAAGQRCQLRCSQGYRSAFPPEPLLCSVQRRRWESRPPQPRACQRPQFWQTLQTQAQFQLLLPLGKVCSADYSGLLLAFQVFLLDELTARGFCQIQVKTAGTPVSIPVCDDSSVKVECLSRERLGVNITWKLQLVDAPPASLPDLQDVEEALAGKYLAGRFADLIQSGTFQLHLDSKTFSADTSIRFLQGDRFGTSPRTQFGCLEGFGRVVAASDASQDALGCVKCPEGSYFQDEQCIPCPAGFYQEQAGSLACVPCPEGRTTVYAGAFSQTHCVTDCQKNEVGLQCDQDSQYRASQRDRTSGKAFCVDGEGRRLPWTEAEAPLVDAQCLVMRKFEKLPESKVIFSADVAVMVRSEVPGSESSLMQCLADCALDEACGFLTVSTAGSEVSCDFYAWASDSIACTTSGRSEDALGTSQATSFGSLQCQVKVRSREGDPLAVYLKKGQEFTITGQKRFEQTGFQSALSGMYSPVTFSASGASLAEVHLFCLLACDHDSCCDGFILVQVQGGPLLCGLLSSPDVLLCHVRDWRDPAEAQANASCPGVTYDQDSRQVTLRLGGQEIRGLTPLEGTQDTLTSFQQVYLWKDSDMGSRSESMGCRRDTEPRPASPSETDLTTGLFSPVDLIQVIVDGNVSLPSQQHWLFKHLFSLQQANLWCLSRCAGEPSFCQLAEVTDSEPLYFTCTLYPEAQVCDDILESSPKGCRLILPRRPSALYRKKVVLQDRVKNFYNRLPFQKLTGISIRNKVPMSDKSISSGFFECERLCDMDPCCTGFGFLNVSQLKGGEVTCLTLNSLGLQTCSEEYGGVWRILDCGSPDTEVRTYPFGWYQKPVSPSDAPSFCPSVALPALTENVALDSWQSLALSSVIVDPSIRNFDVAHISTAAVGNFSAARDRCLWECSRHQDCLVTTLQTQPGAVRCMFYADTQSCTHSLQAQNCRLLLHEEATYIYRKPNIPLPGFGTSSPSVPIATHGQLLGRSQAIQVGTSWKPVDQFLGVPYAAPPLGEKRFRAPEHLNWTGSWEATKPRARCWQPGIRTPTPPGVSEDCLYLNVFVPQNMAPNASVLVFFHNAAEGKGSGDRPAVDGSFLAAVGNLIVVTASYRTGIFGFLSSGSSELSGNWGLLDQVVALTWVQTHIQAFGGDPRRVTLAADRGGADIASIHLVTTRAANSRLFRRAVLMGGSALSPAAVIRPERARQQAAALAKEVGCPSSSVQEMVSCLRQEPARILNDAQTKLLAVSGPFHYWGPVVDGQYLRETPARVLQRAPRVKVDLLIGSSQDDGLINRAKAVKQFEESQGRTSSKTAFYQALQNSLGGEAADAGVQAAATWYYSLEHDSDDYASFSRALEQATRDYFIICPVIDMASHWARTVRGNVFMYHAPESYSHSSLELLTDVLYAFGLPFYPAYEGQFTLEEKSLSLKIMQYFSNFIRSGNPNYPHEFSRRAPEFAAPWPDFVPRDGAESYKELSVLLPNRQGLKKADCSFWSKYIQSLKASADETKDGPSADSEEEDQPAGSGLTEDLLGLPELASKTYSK
Excerpt: Relative fluorescence intensity or optical density was determination on a Molecular Devices plate reader.
By performing EC₅₀ assays using purified IgE mAb, rough comparisons between mAb binding can be made.

B1: human alpha-gal-specific IgE mAb 10H8 (antibody, V domains shown)
VH: QVQLVESGGGVVQPGRSLRLSCAVSGFTFRSFGMHWVRQAPGKGLEWVAVIWHDGSNKHYADSVKGRFTISRDDSKNTLFLQMNSLRAEDTAVYYCARESEEQGNMDVWGQGTTVTVSS
VL: DVVMTQSPLSLPATLGQPASISCRSSHSLVYSNGNTYLNWFQQRPGQSPRRLFFQVSNRDSGVPDRFSGSGSVTNFTLKISRVEAEDVGVYYCMEGSHWPPYTFGQGTRLDIR
notes: the IgE constant regions are not
As to B1, the EC50 (usually the concentration that produces a half-maximal response) was determined as 0.072 µg/mL.

B2: human alpha-gal-specific IgE mAb 16D9 (antibody, V domains shown)
VH: QVQLQQWGAGLLKPSETLSLTCAVYGGTFSDYFYTWIRQPPGKGLEWIGEVSHTGRTSYIPSLKSRVTMSVDTSKNQFSLNLSSVTDADTAVYYCGRGRGYTWNDWGQGTLVTVSS
VL: QSALTQPASVSGSPGQSITISCTGTITDVGGYDYVSWYQQHPGKAPKLIIFLVNNRPSGVSDRFSGSKSGNTASLTISGLRVEDEADYYCMSYTCSNPYTCSSLYVFGTGTKVTVL
notes: as for B1
B2 yielded an EC50 of 0.016 µg/mL.
